Experimental data published in PMC7241850.

How the values were obtained:
[1] = target: HIV-1 Env NE1 Q563R (HIV-1 (clade B, individual 653116))
[2] = target: HIV-1 Env E1 R563Q (HIV-1 (clade B, individual 653116))

HIV-1 IIIB C34 Peptide
IC50 of inhibition of infection of TZM-bl cells by pseudovirus (luciferase) [1]: 0.04 µg/mL
IC50 of inhibition of infection of TZM-bl cells by pseudovirus (luciferase) [2]: 0.6 µg/mL
